# Assay results from a protein production outcome set (Wang et al. 2014).
# Assay: label from the status in PepcDB records
row,Sequence,protein production
1,AADGEGRGELSPKIKAGDLESKLIVPKNNGLKITGTFLDEISHDIPHQNWGEKEWDLDFQHMKRIGIDTVIMIRSGYRKFMTYPSPYLLKKGCYMPSVDLVDMYLRLAEKYNMKFYFGLYDSGRYWDTGDLSWEIEDNKYVIDEVWKMYGEKYKSFGGWYISGEISRATKGAIDAFRAMGKQCKDISNGLPTFISPWIDGKKAIMGTGKLTREDAVSVQQHEKEWNEIFDGIHEVVDACAFQDGHIDYDELDAFFTVNKKLADKYGMQCWTNAESFDRDMPIRFLPIKFDKLRMKLEAAKRAGYDKAITFEFSHFMSPQSAYLQAGHLYDRYREYFEIK,not failed
2,AADKRIDGNGNPETREIKISDYDEITFVGSADFEYEQSDKAPYLSVTIDENLFDYLVTEVEGGTLKIYPKSIKKGFNNNSYDLRPTVYKIKSNSKELKELNTVGSGSFIISKPTKVNRMEINMAGSGNVELRGPVKGYKLECNMAGSGNIIAKDIQLDNLSCSLASSGEIEVIGTVDRASFNVAGSGEIKAFDCQARKAECNIASSGEISVYATQILDANIVGSGEIHYKGDPEISKSIMGSGSINKVK,not failed
3,AAIYHLDVSGQATIRFRPPAFLKTLVSEHAGTTRLNTLSMIHHDDRHMLSNAYSKLREAKHSLTLVYRIVTPEGKLHWIEDHMRSSFSDD,failed
4,AAKPQIVEVTDDMPVEPIGVGIPEAGQTYPVIMGDYAAQQARWARIDVQPGTALSKPKPLIAKLDPELGETGPEWAPVNP,failed
5,AASSRSWKSWFIEQYFWLKRDKSYYSKQDDPSFQRYLDACREQSDKPYQLDTNLVNGPLVQENLYGMQVYSWNDNGKPDQKTIIYLAGGSYLNNPTTYHINMLKTLSTSLDAKIVLPIYPKAPRYTYNYTMPKLVNLYQHYYHKNQNVFLMGDSAGGGLALGLAHALHNESVPQPKQLVLLSPWLDVTMSHPEIPEYEDADPILSSWGLKRVGELWAYSADNTNHIYVSPKNGPITYLPPITLFTGTREIFYPDIRDYAAKLKAANHNITFITQEGMNHVYPIYPIEEAKTAQYQIIDAINKT,failed
6,ACKVLYSLGELNERFVPKTLKERVASIADVHFEHWNKYGDSVTATVNKADKSKDRTYKTECPLEFYDALPRVGEICYAYEIFLEPQFESCEYTEHMYLNLQTPRNYAILLRNKLPRLAEMPLFSNQGKLHVRVANAPLEVIIQNSEQLELLH,failed
7,ADSPVLMVYGLDQSKMNCDRVFNVFCLYGNVEKVKFMKSKPGAAMVEMADGYAVDRAITHLNNNFMFGQKMNVCVSKQPAIMPGQSYGLEDGSCSYKDFSESRNNRFSTPEQAAKNRIQHPSNVLHFFNAPLEVTEENFFEICDELGVKRPTSVKVFSGKSERSSSGLLEWDSKSDALETLGFLNHYQMKNPNGPYPYTLKLCFSTAQHAS,not failed
8,AEDPILRAIPENAFDGIAVTDAGGHVVYANSTYLALTGAATMQDVRPVERVFIGNPDVSEAVFRLLKAAREGRRLQEEVRVAGADGTQGRWMRLRVRPLGTSKREARQTVWSIADITRDRERQEDVFQTLQHAIEYLDHAPCGFFSVNPAGNLVYVNATLANWLDH,failed
9,AEGQTVYWHAWGGDPKINAFIAWVGEQARARHGFMLEQVKLADTTEAVARVLAEKQAGRTEGGAVDLIWINGENFAAMKAQGLLSEPFAESLPNWTHVDVAGKPAVVTDFTEPTGGLESPWAMAQLVFEHDSARLPAPPRTLAQLLAWIEVNPGRFTFPQPPDYLGTTFLKQVLYGVIEDPGLLQKPVDPATYETVTAPLWTWLDRAEPYLWREGRAYPANEPALGQLFADGEIAISFAFNPGRASAAIAAGELPETVRTFTLEGGTIGNASFVAIPFNAAHAAGAKVIANLLLDPEVQARAQDPAVLGFQTVLDVAALPEPDRARFAAL,failed
10,AEICLITGTPGSGKTLKMVSMMANDEMFKPDENGIRRKVFTNIKGLKIPHTYIETDAKKLPKSTDEQLSAHDMYEWIKKPENIGSIVIVDEAQDVWPARSAGSKIPENVQWLNTHRHQGIDIFVLTQGPKLLDQNLRTLVRKHYHIASNKMGMRTLLEWKICADDPVKMASSAFSSIYTLDKKVYDLYESAEVHTVNKVKRSK,not failed
11,AERTIQLPKPDMNRAGLLMKALSERHSTREYASKALSNTDLSDLLWAANGINRSSEGKRTAPSAMNRQDIDIYVVLPQGTYLYDAKGHKLNLISEGDHRSAVAGGQAFVNNAPVSLVLVSDLSKLGDAKSNHVQLMGAMDAGIVSQNISLFCSAARLATVPRASMDLVRLKAALKLKDTQMPMMNHPVGYFK,not failed
12,AGGTTPAELRAAAADFTWLLNRFATETAGVVDAIAVSSDGLLIAVSELREHADSERLAAIVSGITSLAAGASGNYGLGGLNKVIIDLEGGHVLVSAIGSGAVLGVVTDKEAKLGNIAYEMTLFANRAGAALS,failed
13,AGKPDWDWQPAPKNEALIAAVSAAAQEGLNAAYQIREKQARTTKLREVYAAVQAAMAEQAAQAGQPAPDSVGVDNILFDLEARIVRSQILNGEPRIDGRDTRTVRP,not failed
14,AHADFEHLPVALMKFGSDGSLRVANRAARDLLGLGHDAQPDFSDLFEGLGRAVRDWLADVAAERMPGGAEVLRLRRSEEEVFLQIALRRIVEHGRPLVLAVLNDAT,failed
15,AHHHHHHGSKMIKVKVIGRNIEKEIEWREGMKVRDILRAVGFNTESAIAKVNGKVVLEDDEVKDGDFVEVIPVVSGG,not failed
16,AHKLFIGGLPNYLNDDQVKELLTSFGPLKAFNLVKDSATGLSKGYAFCEYVDINVTDQAIAGLNGMQLGDKKLLVQRASVGAKNA,not failed
17,AIACHTQVGGSMQVPEPRRPFTCSSENNVTNSFFEEAYSASFRSKLYNMVEEIEQERAKYCNSANLSYMDAFGVEKESIEEDYNKEEDRDSLCSVDIADNSETSNRSSEDLLCDNCSKSLMFLNNVFKWNDLLFCNLDCYTSAILKNQKGADVKHRVACSLSPTWHKDCVHSVQD,not failed
18,AIAELTGQRLREGDGPDGPADDGAGAQADLEHSLLVAAEKKDEGPYRMEHFRWGSPPKDKRYGGFMTSEKSQTPLVTLFKNAIIKNAYKKGE,failed
19,AIAMFTLPLLFPIITLPEPTGKYTVGTKAFHLIDTNRKETTVPNNHGNRELMIQVYYPAEKGSGKPSAYFENIDALAEQLAVTKGAPYIVTTHLGLTKTHSYQDAKPLQVKEKFPLLLFGHGMELYGQQNTFQLEELASQGYVVIALNFTGYAATTIFPNGKRIDSVPIEFTPNALNNMVRNWEQDTTFILNEVIKGNFDKNFTAIANLIDDDKIGMFGHSYGGATAAQMLVKDNRIKAAIDMDGGLYGDPMPKDGPQKPFMLMNAEATIQYMKEAENQKTDGIQDELFEISYLRNKTIEKPGAYTVVLPKTNHNSFTDLAAFSPIINEPGEDVSANYTLINKLVTSFFDQTLKG,failed
20,AIAPLGEEKNGKCDGSIYVNNPHLDSMTDDILYHFNLGTSTHDLPKMFGDVKFVCVGGSPWRMKSFTEYIAKELGLVDPNAEYPNICAGTDRYAMYKVGPVLSVSHGMGIPSISIMLHELIKLLYHARCTDVTVVRIGTSGGIGLKPGTVVVTKQSVDSLFQPHLEQTILGKPVVRSTELDKELAEELLQCGKELGEFEIIIGNTMCTLDFYEGSNVFEDKCTRIAAYSFKIHVL,failed
21,AIAPSDLAKKKAAKKKEAAKARGRTRKPEDGVNGDAEKPEIQENGAAEVNGVDSLAKELDEFELKKTEARAVTGVLASHPNSTDVHISSLSLTFHGQELLSDTSLELNSGRRYGLIGLNGTGKSMLLSAISHREVPIPEHIDIYHLTREMAPSEKTALQCVMEVDEERIKLEKEAERLAHEDSECEKLMELYERLEELDADKASMRASRILHGLGFTTSMQQKKLKDFSGGWRMRVALARALFLKPFMLLLDEPTNHLDLDACVWLEEELSQFKRILVLISHSQDFLNGVCTNIIHLHQRKLKYYTGNYDQYVKTREELEENQMKRFNWEQDQIAHMKNYIARFGHGSAKLARQAQSKEKTLQKMVASGLTERVVNDKTLSFYFPPCGKIPPPVIMVQNVSFRYSENTPYIYKNLEFGIDLDTRVALVGPNGAGKSTLLKLLTGELLPSDGMIRKHSHVKIGRYHQHLTEQLELDLSPLEYMMKCYPEIKEKEEMKKIIGRYGLTGKQQVSPIRNLSDGQKCRVCFAWLAWQNPHMLFLDEPTNHLDIETIDALAEAINDFEGGMMLVSHDFRLIQQVAQEIWVCEKQTITKWSRDILAYKEHLKSKIDKQMHDL,failed
22,AIATSALENYINRTVAVITSDGRMIVGTLKGFDQTINLILDESHERVFSSSQGVEQVVLGLYIVRGDNVAVIGEIDEETDSALDLGNIRAEPLNSVAH,not failed
